Source: article PMC8072677

Target: CCR7-EGFP (human CCR7 fused to EGFP) (human) (UniProt P32248)
Sequence of UniProt P32248 (P32248 25-378): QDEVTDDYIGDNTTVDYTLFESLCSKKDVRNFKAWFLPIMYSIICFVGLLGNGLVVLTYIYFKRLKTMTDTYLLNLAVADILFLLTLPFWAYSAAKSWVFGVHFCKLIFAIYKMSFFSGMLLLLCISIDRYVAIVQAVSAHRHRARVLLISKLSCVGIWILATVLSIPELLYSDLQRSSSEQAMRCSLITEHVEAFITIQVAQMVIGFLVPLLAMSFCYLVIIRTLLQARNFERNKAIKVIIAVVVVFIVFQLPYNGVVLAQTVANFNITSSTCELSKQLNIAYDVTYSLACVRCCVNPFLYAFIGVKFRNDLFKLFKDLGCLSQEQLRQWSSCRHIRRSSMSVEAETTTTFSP

Transwell migration of 300-19 pre-B cells stably expressing CCR7 towards graded concentrations of chemokine, 3 h; concentration of maximal migration: 50 nM
Substance: CCL19 (recombinant untagged, native mature human CCL19) (from UniProt Q99731 22-98) (ligand)
